Experimental data published in patent US20160200763.
Residue numbers refer to the chain shown, from its start. In names and notes the source's numbering stands.

T1: L807
T1 chain: KEAPPSPPQSP

T2: pL807
T2 chain: KEAPPSPPQSP

B1: Bacterially expressed Purified GSK-3β Wild-Type (WT) (protein)
chain: MSGRPRTTSFAESCKPVQQPSAFGSMKVSRDKDGSKVTTVVATPGQGPDRPQEVSYTDTKVIGNGSFGVVYQAKLCDSGELVAIKKVLQDKRFKNRELQIMRKLDHCNIVRLRYFFYSSGEKKDEVYLNLVLDYVPETVYRVARHYSRAKQTLPVIYVKLYMYQLFRSLAYIHSFGICHRDIKPQNLLLDPDTAVLKLCDFGSAKQLVRGEPNVSYICSRYYRAPELIFGATDYTSSIDVWSAGCVLAELLLGQPIFPGDSGVDQLVEIIKVLGTPTREQIREMNPNYTEFKFPQIKAHPWTKDSSGTGHFTSGVRVFRPRTPPEAIALCSRLLEYTPTARLTPLEACAHSFFDELRDPNVKLPNGRDTPALFNFTTQELSSNPPLATILIPPHARIQAAASTPTNATAASDANTGDRGQTNNAASASASNST
B2: GSK-3β F93A mutant (in which Phe93 was replaced by alanine) (protein)
chain: B1 chain with F93A

Columns and labels:
[1] = target: T1, L807
[2] = target: T2, pL807

Row | Protein | peptide phosphorylation by GSK-3β (in vitro kinase assay, 32P-γ-ATP) [1] | peptide phosphorylation by WT GSK-3β (in vitro kinase assay) [1] | peptide phosphorylation by GSK-3β (in vitro kinase assay, 32P-γ-ATP) [2] | peptide phosphorylation by the F93A mutant (in vitro kinase assay) [1]
1 | B1 | shows that L807 is a substrate of GSK-3 | L807 is phosphorylated by both GSK-3 and F93A | pL807 is not a substrate of GSK-3 | –
2 | B2 | – | – | – | L807 is phosphorylated by both GSK-3 and F93A
